Experiment: yeast display, Sf9 membrane polyspecificity reagent, FACS + sequencing; frameworks hold sequencing errors
In short: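 After 36–48 hours of galactose induction, yeast (Saccharomyces cerevisiae BJ5465) displaying a synthetic nanobody library were stained at 4 °C for 1 hour with 10% biotinylated, detergent-solubilized Sf9 membrane reagent. Streptavidin microbeads enriched the stained cells before FACS sorting into low and high (top ~1%) gates on anti-HA and streptavidin fluorescence. Each clone's polyreactivity label reflects its gate of origin.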

QVQLVESGGGLVQAGGSLRLSCAASGFIFYRKTMGWYRQAPGKERELDAAISVSGGSTNYADSVKGRFTISRDNAKNTVYLQMNSLKPEDTAVYYCAARVRDSLVYGGWDDYWGQGTQVTVSS
polyreactivity (PSR sort gate): high polyreactivity

QVQLVESGGGLVQAGGSLRLSCAASGFIFYRNAMGWYRQAPGKERELVAAISGSGGRTYYADSVKGRFTISRDNAKITVYLQMNSLNPEDTAVYYCNAGPLYRGEYDYWGQGTQVTVSS
polyreactivity (PSR sort gate): high polyreactivity

QVQLVESGGGLVQAGGSLRLSCAASGFIFYRNAMGWYRQAPGKERELVAAISVDGSTYYADSVKGRFTISRDNAKNTVYLQMNSQKPEDTAVYYCAAEYYSSYYQYVIYGYWGQGTQVTVSS
polyreactivity (PSR sort gate): low polyreactivity

QVQLVESGGGLVQAGGSLRLSCAASGFIFYRNTMGWYRQAPGKEREFVAAIRWRGGSTYYADSVKGRFTISRDNAKNTVYLQMNSLKPEDTAVYYCAADSRPVYSGFEYWGQGTQVTVSS
polyreactivity (PSR sort gate): high polyreactivity

QVQLVESGGGLVQAGGSLRLSCAASGFIFYRNTMGWYRQAPGKEREFVAAIRWRGGSTYYADSVKGRFTISRDNAKNTVYLQMNSLKPEDTAVYYCNALGKPTWYATTYDYWGQGTQVTVSS
polyreactivity (PSR sort gate): high polyreactivity

QVQLVESGGGLVQAGGSLRLSCAASGFIFYRNTMGWYRQAPGKESELVAAISRRGGNTYYADSVKGRFTISRDYAKNTVYLQMNSLKPEDTAVYYCNADGNAVYNRVSYDYWGQGTQVTVSS
polyreactivity (PSR sort gate): high polyreactivity

QVQLVESGGGLVQAGGSLRLSCAASGFIFYRYAMGWYRQAPGKERELVAAISRSGGTTYYADSVKGRFTISRDNAKNTVYLQMNSLKPEDTAVYYCNVKRGTIGGYYYWGQGTQVTVSS
polyreactivity (PSR sort gate): high polyreactivity

QVQLVESGGGLVQAGGSLRLSCAASGFIFYRYAMGWYRQAPGKERELVAAISSGGGRTYYADSVKGRFTISRDNAKNTVYLQMNSLKPEDTAVYYCAKGYFWSSYVSSRYGSWGQGTQVTVSS
polyreactivity (PSR sort gate): high polyreactivity

QVQLVESGGGLVQAGGSLRLSCAASGFIFYRYAMGWYRQAPGKERELVARISWNGGITYYADSVKGRFTISRDNAKNTVYLQMNILKPEDTAVYYCNKPDPYGLYTYEYWGQGTQVTVSS
polyreactivity (PSR sort gate): low polyreactivity

QVQLVESGGGLVQAGGSLRLSCAASGFIFYSNAMGWYRQAPGKERELVAAIRSTGSTSYADSVKGRFTISRDNAKNTVYLQMNILKPEDTAVYYCAKVRYWRGYDYWGQGTQVTVSS
polyreactivity (PSR sort gate): high polyreactivity

QVQLVESGGGLVQAGGSLRLSCAASGFIFYSNAMGWYRQSPGKERELVAGISRGGSTYYADSVKGRFTISRDNAKNTVYLQMNRLKPEDTAVYYCAAKISLGDDYWGQGTQVTVSS
polyreactivity (PSR sort gate): low polyreactivity

QVQLVESGGGLVQAGGSLRLSCAASGFIFYSSDMGWYRQSPGKERELVAAIDSRGVNTYYADSVKGRFTISRDNAKNTVYLQMNSLKPEDTAVYYCNVDAINWWDWEDFDYWGQGTQVTVSS
polyreactivity (PSR sort gate): low polyreactivity

QVQLVESGGGLVQAGGSLRLSCAASGFIFYSYALGWYRQAPGKEREFVASISGRTGSTYYADSVKGRFTISRDNAKNTVYLQMNSLKPEDTAVYYCNARIVHSFRYDYWGQGTQVTVSS
polyreactivity (PSR sort gate): low polyreactivity

QVQLVESGGGLVQAGGSLRLSCAASGFIFYTYAMGWYRQAPGKERELVAAISRGGRTNYADSVKGRFTISRDNAKNSVYLQMNSLKPEDTAVYYCASSYSHRYDYWGQGTQVTVSS
polyreactivity (PSR sort gate): high polyreactivity

QVQLVESGGGLVQAGGSLRLSCAASGFIFYYAMGWYRQAPGKERELVAGITESDGSTNYADSVKGRFTISRDNAKNTVYLQMNSLKTEVTAVYYCAKDASSLRFDYWGQGTQVTVSS
polyreactivity (PSR sort gate): low polyreactivity

QVQLVESGGGLVQAGGSLRLSCAASGFIFYYNAMGRYRQAPGKERELVATIRGSGGSTYYADSVKGRFTISRDNAKNTVYLQMNSLKPEDTAVYYCATTIYGLTSRLYYWGQGTQVTVSS
polyreactivity (PSR sort gate): high polyreactivity

QVQLVESGGGLVQAGGSLRLSCAASGFIFYYNAMGWYRQAPGKERELVAAISASGDRTYYADSVKGRFTISRDNAKNTVYLQMNSLKPEDTAVYYCAARSQGARYSSRRRFGDYWGQGTQVTVSS
polyreactivity (PSR sort gate): high polyreactivity

QVQLVESGGGLVQAGGSLRLSCAASGFIFYYNTMGWYRQATGKESELVDSITWSGDTTYYADSVKGRFTISRDNAKKTVYLQMNSLKPEDTAVYYCAAVHYYPYRRYDYWGQGTQVTVSS
polyreactivity (PSR sort gate): low polyreactivity

QVQLVESGGGLVQAGGSLRLSCAASGFIFYYYAMGWYRQAPAKERELVAVITSGGSTNYADSVKGRFTISRDNAKNTVYLQMNSLKPEDTAVYYCAARSRRRDDYWGQGTQVTVSS
polyreactivity (PSR sort gate): high polyreactivity

QVQLVESGGGLVQAGGSLRLSCAASGFIFYYYAMGWYRQAPGKERELFAAISKSGGSTYYADSVKGRFTISRDHAKNTVYLEMNSLKPEDTAVYYCAGVVTTWPYYGFGYWGQGTQVTVSS
polyreactivity (PSR sort gate): high polyreactivity

QVQLVESGGGLVQAGGSLRLSCAASGFIFYYYAMGWYRQAPGKERELVAAISVRGGRTYYADSVKGRFTISRDNAKNTVYLQMNSLKPEDTAVYYCAADLYNRGRGSSQSYRTGYDYWGQGTQVTVSS
polyreactivity (PSR sort gate): high polyreactivity

QVQLVESGGGLVQAGGSLRLSCAASGFIFYYYAMGWYRQAPGKERELVAAITSGGGTTYYADSVKGRFTISRDNAKNTVYLQMNSLKPEDTAVYYCNADSYYNSWFYYFDGFDGDYWGQGTQVTVSS
polyreactivity (PSR sort gate): high polyreactivity

Source: the nanobody polyreactivity screen of Harvey et al. (2022)
